The record followed here is IntAct's records for PubMed 9171338.

First the molecules themselves.
B1: Clathrin heavy chain (Saccharomyces cerevisiae), P22137 (parent)
chain: MSDLPIEFTELVDLMSLGISPQFLDFRSTTFESDHFVTVRETKDGTNSVAIVDLAKGNEVTRKNMGGDSAIMHPSQMVISVRANGTIVQIFNLETKSKLKSFTLDEPVIFWRWLSETTLGFVTARSILTSNVFDGNVNAKPQLLTLRHANLNNTQIINFVANKNLDWFAVVGILQENGRIAGRIQLFSKQRNISQAIDGHVAIFTNILLEGNGSTPVQVFVTGNRNATTGAGELRIIEIDHDASLPSQYQKETTDIFFPPDATNDFPIAVQVSEKYGIIYLLTKYGFIHLYELETGTNLFVNRITAESVFTAAPYNHENGIACINKKGQVLAVEISTSQIVPYILNKLSNVALALIVATRGGLPGADDLFQKQFESLLLQNDYQNAAKVAASSTSLRNQNTINRLKNIQAPPGAISPILLYFSTLLDKGKLNKEETIELARPVLQQDRKQLFEKWLKEDKLECSEELGDIVKPFDTTLALACYLRAGAHAKVISCLAELQQFEKIIPYCQKVGYQPNFLVLISSLIRSSPDRASEFAVSLLQNPETASQIDIEKIADLFFSQNHIQQGTSLLLDALKGDTPDQGHLQTRVLEVNLLHAPQVADAILGNNIFSHYDKPTIASLSEKAGLYQRALENYTDIKDIKRCVVHTNALPIDWLVGYFGKLNVEQSLACLKALMDNNIQANIQTVVQVATKFSDLIGPSTLIKLFEDYNATEGLYYYLASLVNLTEDKDVVYKYIEAAAKMKQYREIERIVKDNNVYDPERVKNFLKDANLEDQLPLVIVCDRFDFVHEMILYLYKSQNLKFIETYVQQVNPSKTAQVVGALLDMDCDEAFIQSLLQSVLGQVPINELTTEVEKRNRLKILLPFLEQSLSQGIQDQAVYNALAKIYIDSNNSPEKFLKENDQYDTLDVGHYCEKRDPYLAYIAYEKGQNDDDLIRITNENSMYKYQARYLLERSDLDLWNKVLNQENIHRRQLIDSVISVGIPELTDPEPVSLTVQAFMTNGLKLELIELLEKIILEPSPFNENVALQGLLLLSAIKYEPTKVSSYIEKLDNYDADEIAPLCIEHDLKEEAFEIYDKHEMYGKALKVLIEDIMSLDRAASYADKINTPELWSQIGTAQLDGLRIPDAIESYIKAEDPSNYENVIDIAEQAGKYEELIPFLLMARKTLKEPKIDGALILAYAELNKIHEIENLLAGSNVANLDHVGDKLFENKEYKAARLCYSAVSNYSKLASTLVYLGDYQAAVDTARKASNIKVWKLVNDACIEKKEFKLAQICGLNLIVHAEELDELVERYESNGYFEELISLFEAGLGLERAHMGMFTELAILYSKYEPDKTFEHLKLFWSRINIPKVIRAVEQAHLWSELVFLYAHYDEWDNAALTLIEKSTKDLDHAYFKEVVVKVSNLEIYYKAINFYVKFHPSLLVDLLTSLTPRLDIPRTVKIFSKSDNLPLIKPFLINVLPKNNSVVNQAYHDLMIEEEDYKALQDAVDSYDKFDQLGLASRLESHKLIFFKKIGALLYRRNKKWAKSLSILKEEKLWKDAIETAAISQDPKVVEALLTYFVETGNREGFVALLYAAYNLVRIEFVLEISWMNSLEDYIKPFEISIKKEQNDSIKKITEELAKKSGSNEEHKDGQPLMLMNSAMNVQPTGF
partner: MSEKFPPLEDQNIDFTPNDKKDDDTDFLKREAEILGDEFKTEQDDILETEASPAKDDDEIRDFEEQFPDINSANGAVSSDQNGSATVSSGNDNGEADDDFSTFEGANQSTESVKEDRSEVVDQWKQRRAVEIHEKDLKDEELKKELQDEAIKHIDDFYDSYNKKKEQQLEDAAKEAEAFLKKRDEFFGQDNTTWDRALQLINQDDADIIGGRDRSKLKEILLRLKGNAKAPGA

The variants in the first assay derive from B1. To be noted: with clc1_yeast CLC1, P17891.
As for P1553L;E1590K, the “effect of a mutation on the interaction” value is listed as “disrupting interaction strength”.

Consider S1331F;S1347F;P1553L;E1590K, for which the “effect of a mutation on the interaction” value is listed as “disrupting interaction strength”.

For S1347F;P1553L, the “effect of a mutation on the interaction” value was “with no effect”.

E1590K: the “effect of a mutation on the interaction” value is listed as “disrupting interaction strength”.

S1331F;S1347F;E1590K: the “effect of a mutation on the interaction” value is given as “disrupting interaction strength”.

Take S1331F;S1347F;E1590A: the “effect of a mutation on the interaction” value is reported as “disrupting interaction strength”.

In the case of S1331F;S1347F, the “effect of a mutation on the interaction” value is on record as “with no effect”.

For the variant S1331F;S1347F;P1553L, the “effect of a mutation on the interaction” value is on record as “with no effect”.

Regarding S1347F;P1553L;E1590K, the “effect of a mutation on the interaction” value is given as “disrupting interaction strength”.

The variants in the next assay derive from B1. Particulars: with clc1_yeast CLC1, P17891. The source holds these as a separate data set.
For E1590A, the “effect of a mutation on the interaction” value is listed as “disrupting interaction strength”.

For S1331F;S1347F;E1590A, the “effect of a mutation on the interaction” value is “disrupting interaction strength”.
